Laboratory results reported in US20030129703A1 (Regeneron, published 2003).

Assays:
Fc-tagged human noggin = target: T1, Fc-tagged human noggin (human, UniProt Q13253 28-232); assay: ELISA on plate-coated hBMP4
T1 construct: Secreted protein; also called hNG-Fc; not shown: Fc domain of human IgG1 (BspEI-NotI human IgG1 fragment), hinge and Fc
T1 sequence: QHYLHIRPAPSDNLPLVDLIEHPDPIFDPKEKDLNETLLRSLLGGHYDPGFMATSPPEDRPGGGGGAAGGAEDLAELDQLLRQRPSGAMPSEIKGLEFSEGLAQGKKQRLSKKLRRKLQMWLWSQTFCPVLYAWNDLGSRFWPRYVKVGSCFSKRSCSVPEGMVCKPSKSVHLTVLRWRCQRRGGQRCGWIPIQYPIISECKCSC
Protocol: Unbound hBMP4 was removed by washing four times with PBS, and the plates were blocked with 1% BSA in PBS. […] After a 1 hour incubation unbound anti-Fc●AP was removed by washing four times with TBS+0.1% Tween and then Alkaline Phosphatase substrate (para-nitrophenyl phosphate; Sigma) was added. Alkaline Phosphatase converts this substrate to a product whose production can be monitored by measuring Absorbance at 405 nm.
To determine if this hNG mutein was active, its ability to bind to hBMP4 was compared with that of hNG-Fc, which binds human Bone Morphogenetic Protein 4 (hBMP4) with affinity essentially identical to that of untagged hNG. An ELISA format assay where hBMP4 is captured on the surface of an ELISA plate was used to compare the two proteins.

hNGΔ133-179Fc = target: T2, hNGΔ133-179Fc (human, UniProt Q13253 28-232); assay: binding to BMP4; assay not detailed
T2 construct: not shown: peptide bridge to the Fc; Fc domain of human IgG1
T2 sequence: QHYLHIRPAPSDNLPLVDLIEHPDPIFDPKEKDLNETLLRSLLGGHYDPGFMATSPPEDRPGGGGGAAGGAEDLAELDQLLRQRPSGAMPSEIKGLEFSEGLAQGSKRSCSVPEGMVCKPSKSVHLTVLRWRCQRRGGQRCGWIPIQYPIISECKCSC

B1: human Bone Morphogenetic Protein 4 (ligand, UniProt P12644 293-408, looked up)
chain: SPKHHSQRARKKNKNCRRHSLYVDFSDVGWNDWIVAPPGYQAFYCHGDCPFPLADHLNSTNHAIVQTLVNSVNSSIPKACCVPTELSAISMLYLDEYDKVVLKNYQEMVVEGCGCR
notes: also called hBMP4; BMP4
binding result (Fc-tagged human noggin): binds | binding result (hNGΔ133-179Fc): no binding
